Measured values from patent publication US20240049668A1 (VILMORIN AND CIE, published 2024).

T1: Movement Protein of ToBRFV (Tomato Brown Rugose Fruit Virus …, UniProt A0A0S2SZW1 1-266)
T1 sequence: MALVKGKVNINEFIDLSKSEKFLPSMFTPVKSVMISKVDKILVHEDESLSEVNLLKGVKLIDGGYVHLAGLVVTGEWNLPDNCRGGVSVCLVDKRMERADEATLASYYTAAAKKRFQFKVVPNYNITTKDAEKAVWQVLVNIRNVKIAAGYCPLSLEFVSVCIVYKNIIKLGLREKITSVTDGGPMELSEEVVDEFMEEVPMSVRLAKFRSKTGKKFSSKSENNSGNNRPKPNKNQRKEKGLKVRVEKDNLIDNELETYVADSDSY

B1: TM-2-2 variant pJL 468_A (848 A) (receptor)
chain: MAEILLTSVINKSVEIAGNLLIQEGKRLYWLKEDIDWLQREMRHIRSYVDNAKAKEAGGDSRVKNLLKDIQELAGDVEDLLDDFLPKIQQSNKFNYCLKRSSFADEFAMEIEKIKRRVVDIDRIRKTYNIIDTDNNNDDCVLLDRRRLFLHADETEIIGLDDDFNMLQAKLLNQDLHYGVVSIVGMPGLGKTTLAKKLYRLIRDQFECSGLVYVSQQPRASEILLDIAKQIGLTEQKMKENLEDNLRSLLKIKRYVILLDDIWDVEIWDDLKLVLPECDSKVGSRMIITSRNSNVGRYIGGESSLHALQPLESEKSFELFTKKIFNFDDNNSWANASPDLVNIGRNIVGRCGGIPLAIVVTAGMLRARERTEHAWNRVLESMGHKVQDGCAKVLALSYNDLPIASRPCFLYFGLYPEDHEIRAFDLINMWIAEKFIVVNSGNRREAEDLAEDVLNDLVSRNLIQLAKRTYNGRISSCRIHDLLHSLCVDLAKESNFFHTAHDAFGDPGNVARLRRITFYSDNVMIEFFRSNPKLEKLRVLFCFAKDPSIFSHMAYFDFKLLHTLVVVMSQSFQAYVTIPSKFGNMTCLRYLRLEGNICGKLPNSIVKLTRLETIDIDRRSLIQPPSGVWESKHLRHLCYRDYGQACNSCFSISSFYPNIYSLHPNNLQTLMWIPDKFFEPRLLHRLINLRKLGILGVSNSTVKMLSIFSPVLKALEVLKLSFSSDPSEQIKLSSYPHIAKLHLNVNRTMALNSQSFPPNLIKLTLAYFSVDRYILAVLKTFPKLRKLKMFICKYNEEKMDLSGEANGYSFPQLEVLHIHSPNGLSEVTCTDDVSMPKLKKLLLTGFHARISLSERLKKLSK
B2: TM-2-2 variant pJL 468_L (848 L) (receptor)
chain: MAEILLTSVINKSVEIAGNLLIQEGKRLYWLKEDIDWLQREMRHIRSYVDNAKAKEAGGDSRVKNLLKDIQELAGDVEDLLDDFLPKIQQSNKFNYCLKRSSFADEFAMEIEKIKRRVVDIDRIRKTYNIIDTDNNNDDCVLLDRRRLFLHADETEIIGLDDDFNMLQAKLLNQDLHYGVVSIVGMPGLGKTTLAKKLYRLIRDQFECSGLVYVSQQPRASEILLDIAKQIGLTEQKMKENLEDNLRSLLKIKRYVILLDDIWDVEIWDDLKLVLPECDSKVGSRMIITSRNSNVGRYIGGESSLHALQPLESEKSFELFTKKIFNFDDNNSWANASPDLVNIGRNIVGRCGGIPLAIVVTAGMLRARERTEHAWNRVLESMGHKVQDGCAKVLALSYNDLPIASRPCFLYFGLYPEDHEIRAFDLINMWIAEKFIVVNSGNRREAEDLAEDVLNDLVSRNLIQLAKRTYNGRISSCRIHDLLHSLCVDLAKESNFFHTAHDAFGDPGNVARLRRITFYSDNVMIEFFRSNPKLEKLRVLFCFAKDPSIFSHMAYFDFKLLHTLVVVMSQSFQAYVTIPSKFGNMTCLRYLRLEGNICGKLPNSIVKLTRLETIDIDRRSLIQPPSGVWESKHLRHLCYRDYGQACNSCFSISSFYPNIYSLHPNNLQTLMWIPDKFFEPRLLHRLINLRKLGILGVSNSTVKMLSIFSPVLKALEVLKLSFSSDPSEQIKLSSYPHIAKLHLNVNRTMALNSQSFPPNLIKLTLAYFSVDRYILAVLKTFPKLRKLKMFICKYNEEKMDLSGEANGYSFPQLEVLHIHSPNGLSEVTCTDDVSMPKLKKLLLTGFHLRISLSERLKKLSK
B3: TM-2-2 variant pJL 468_K (848 K) (receptor)
chain: MAEILLTSVINKSVEIAGNLLIQEGKRLYWLKEDIDWLQREMRHIRSYVDNAKAKEAGGDSRVKNLLKDIQELAGDVEDLLDDFLPKIQQSNKFNYCLKRSSFADEFAMEIEKIKRRVVDIDRIRKTYNIIDTDNNNDDCVLLDRRRLFLHADETEIIGLDDDFNMLQAKLLNQDLHYGVVSIVGMPGLGKTTLAKKLYRLIRDQFECSGLVYVSQQPRASEILLDIAKQIGLTEQKMKENLEDNLRSLLKIKRYVILLDDIWDVEIWDDLKLVLPECDSKVGSRMIITSRNSNVGRYIGGESSLHALQPLESEKSFELFTKKIFNFDDNNSWANASPDLVNIGRNIVGRCGGIPLAIVVTAGMLRARERTEHAWNRVLESMGHKVQDGCAKVLALSYNDLPIASRPCFLYFGLYPEDHEIRAFDLINMWIAEKFIVVNSGNRREAEDLAEDVLNDLVSRNLIQLAKRTYNGRISSCRIHDLLHSLCVDLAKESNFFHTAHDAFGDPGNVARLRRITFYSDNVMIEFFRSNPKLEKLRVLFCFAKDPSIFSHMAYFDFKLLHTLVVVMSQSFQAYVTIPSKFGNMTCLRYLRLEGNICGKLPNSIVKLTRLETIDIDRRSLIQPPSGVWESKHLRHLCYRDYGQACNSCFSISSFYPNIYSLHPNNLQTLMWIPDKFFEPRLLHRLINLRKLGILGVSNSTVKMLSIFSPVLKALEVLKLSFSSDPSEQIKLSSYPHIAKLHLNVNRTMALNSQSFPPNLIKLTLAYFSVDRYILAVLKTFPKLRKLKMFICKYNEEKMDLSGEANGYSFPQLEVLHIHSPNGLSEVTCTDDVSMPKLKKLLLTGFHKRISLSERLKKLSK
B4: TM-2-2 variant pJL 468_E (848 E) (receptor)
chain: MAEILLTSVINKSVEIAGNLLIQEGKRLYWLKEDIDWLQREMRHIRSYVDNAKAKEAGGDSRVKNLLKDIQELAGDVEDLLDDFLPKIQQSNKFNYCLKRSSFADEFAMEIEKIKRRVVDIDRIRKTYNIIDTDNNNDDCVLLDRRRLFLHADETEIIGLDDDFNMLQAKLLNQDLHYGVVSIVGMPGLGKTTLAKKLYRLIRDQFECSGLVYVSQQPRASEILLDIAKQIGLTEQKMKENLEDNLRSLLKIKRYVILLDDIWDVEIWDDLKLVLPECDSKVGSRMIITSRNSNVGRYIGGESSLHALQPLESEKSFELFTKKIFNFDDNNSWANASPDLVNIGRNIVGRCGGIPLAIVVTAGMLRARERTEHAWNRVLESMGHKVQDGCAKVLALSYNDLPIASRPCFLYFGLYPEDHEIRAFDLINMWIAEKFIVVNSGNRREAEDLAEDVLNDLVSRNLIQLAKRTYNGRISSCRIHDLLHSLCVDLAKESNFFHTAHDAFGDPGNVARLRRITFYSDNVMIEFFRSNPKLEKLRVLFCFAKDPSIFSHMAYFDFKLLHTLVVVMSQSFQAYVTIPSKFGNMTCLRYLRLEGNICGKLPNSIVKLTRLETIDIDRRSLIQPPSGVWESKHLRHLCYRDYGQACNSCFSISSFYPNIYSLHPNNLQTLMWIPDKFFEPRLLHRLINLRKLGILGVSNSTVKMLSIFSPVLKALEVLKLSFSSDPSEQIKLSSYPHIAKLHLNVNRTMALNSQSFPPNLIKLTLAYFSVDRYILAVLKTFPKLRKLKMFICKYNEEKMDLSGEANGYSFPQLEVLHIHSPNGLSEVTCTDDVSMPKLKKLLLTGFHERISLSERLKKLSK
B5: TM-2-2 variant pJL 468_D (848 D) (receptor)
chain: MAEILLTSVINKSVEIAGNLLIQEGKRLYWLKEDIDWLQREMRHIRSYVDNAKAKEAGGDSRVKNLLKDIQELAGDVEDLLDDFLPKIQQSNKFNYCLKRSSFADEFAMEIEKIKRRVVDIDRIRKTYNIIDTDNNNDDCVLLDRRRLFLHADETEIIGLDDDFNMLQAKLLNQDLHYGVVSIVGMPGLGKTTLAKKLYRLIRDQFECSGLVYVSQQPRASEILLDIAKQIGLTEQKMKENLEDNLRSLLKIKRYVILLDDIWDVEIWDDLKLVLPECDSKVGSRMIITSRNSNVGRYIGGESSLHALQPLESEKSFELFTKKIFNFDDNNSWANASPDLVNIGRNIVGRCGGIPLAIVVTAGMLRARERTEHAWNRVLESMGHKVQDGCAKVLALSYNDLPIASRPCFLYFGLYPEDHEIRAFDLINMWIAEKFIVVNSGNRREAEDLAEDVLNDLVSRNLIQLAKRTYNGRISSCRIHDLLHSLCVDLAKESNFFHTAHDAFGDPGNVARLRRITFYSDNVMIEFFRSNPKLEKLRVLFCFAKDPSIFSHMAYFDFKLLHTLVVVMSQSFQAYVTIPSKFGNMTCLRYLRLEGNICGKLPNSIVKLTRLETIDIDRRSLIQPPSGVWESKHLRHLCYRDYGQACNSCFSISSFYPNIYSLHPNNLQTLMWIPDKFFEPRLLHRLINLRKLGILGVSNSTVKMLSIFSPVLKALEVLKLSFSSDPSEQIKLSSYPHIAKLHLNVNRTMALNSQSFPPNLIKLTLAYFSVDRYILAVLKTFPKLRKLKMFICKYNEEKMDLSGEANGYSFPQLEVLHIHSPNGLSEVTCTDDVSMPKLKKLLLTGFHDRISLSERLKKLSK
B6: TM-2-2 variant pJL 468_H (848 H) (receptor)
chain: MAEILLTSVINKSVEIAGNLLIQEGKRLYWLKEDIDWLQREMRHIRSYVDNAKAKEAGGDSRVKNLLKDIQELAGDVEDLLDDFLPKIQQSNKFNYCLKRSSFADEFAMEIEKIKRRVVDIDRIRKTYNIIDTDNNNDDCVLLDRRRLFLHADETEIIGLDDDFNMLQAKLLNQDLHYGVVSIVGMPGLGKTTLAKKLYRLIRDQFECSGLVYVSQQPRASEILLDIAKQIGLTEQKMKENLEDNLRSLLKIKRYVILLDDIWDVEIWDDLKLVLPECDSKVGSRMIITSRNSNVGRYIGGESSLHALQPLESEKSFELFTKKIFNFDDNNSWANASPDLVNIGRNIVGRCGGIPLAIVVTAGMLRARERTEHAWNRVLESMGHKVQDGCAKVLALSYNDLPIASRPCFLYFGLYPEDHEIRAFDLINMWIAEKFIVVNSGNRREAEDLAEDVLNDLVSRNLIQLAKRTYNGRISSCRIHDLLHSLCVDLAKESNFFHTAHDAFGDPGNVARLRRITFYSDNVMIEFFRSNPKLEKLRVLFCFAKDPSIFSHMAYFDFKLLHTLVVVMSQSFQAYVTIPSKFGNMTCLRYLRLEGNICGKLPNSIVKLTRLETIDIDRRSLIQPPSGVWESKHLRHLCYRDYGQACNSCFSISSFYPNIYSLHPNNLQTLMWIPDKFFEPRLLHRLINLRKLGILGVSNSTVKMLSIFSPVLKALEVLKLSFSSDPSEQIKLSSYPHIAKLHLNVNRTMALNSQSFPPNLIKLTLAYFSVDRYILAVLKTFPKLRKLKMFICKYNEEKMDLSGEANGYSFPQLEVLHIHSPNGLSEVTCTDDVSMPKLKKLLLTGFHHRISLSERLKKLSK

Target: T1, Movement Protein of ToBRFV
Assay: cell-based or functional assay

Binder	HR when expressed with MP Rugose
B1	< 1 HR scale 0-4
B2	< 1 HR scale 0-4
B3	~1 HR scale 0-4
B4	< 1 HR scale 0-4
B5	< 1 HR scale 0-4
B6	< 1 HR scale 0-4
